Source: IntAct's records for PubMed 31515488

B1: Progranulin (Homo sapiens), P28799 (parent)
chain: MWTLVSWVALTAGLVAGTRCPDGQFCPVACCLDPGGASYSCCRPLLDKWPTTLSRHLGGPCQVDAHCSAGHSCIFTVSGTSSCCPFPEAVACGDGHHCCPRGFHCSADGRSCFQRSGNNSVGAIQCPDSQFECPDFSTCCVMVDGSWGCCPMPQASCCEDRVHCCPHGAFCDLVHTRCITPTGTHPLAKKLPAQRTNRAVALSSSVMCPDARSRCPDGSTCCELPSGKYGCCPMPNATCCSDHLHCCPQDTVCDLIQSKCLSKENATTDLLTKLPAHTVGDVKCDMEVSCPDGYTCCRLQSGAWGCCPFTQAVCCEDHIHCCPAGFTCDTQKGTCEQGPHQVPWMEKAPAHLSLPDPQALKRDVPCDNVSSCPSSDTCCQLTSGEWGCCPIPEAVCCSDHQHCCPQGYTCVAEGQCQRGSEIVAGLEKMPARRASLSHPRDIGCDQHTSCPVGQTCCPSLGGSWACCQLPHAVCCEDRQHCCPAGYTCNVKARSCEKEVVSAQPATFLARSPHVGVKDVECGEGHFCHDNQTCCRDNRQGWACCPYRQGVCCADRRHCCPAGFRCAARGTKCLRREAPRWDAPLRDPALRQLL
B2: E3 ubiquitin-protein ligase SH3RF2 (Homo sapiens), Q8TEC5 (parent)
chain: MDDLTLLDLLECPVCFEKLDVTAKVLPCQHTFCKPCLQRVFKAHKELRCPECRTPVFSNIEALPANLLLVRLLDGVRSGQSSGRGGSFRRPGTMTLQDGRKSRTNPRRLQASPFRLVPNVRIHMDGVPRAKALCNYRGQNPGDLRFNKGDIILLRRQLDENWYQGEINGISGNFPASSVEVIKQLPQPPPLCRALYNFDLRGKDKSENQDCLTFLKDDIITVISRVDENWAEGKLGDKVGIFPILFVEPNLTARHLLEKNKGRQSSRTKNLSLVSSSSRGNTSTLRRGPGSRRKVPGQFSITTALNTLNRMVHSPSGRHMVEISTPVLISSSNPSVITQPMEKADVPSSCVGQVSTYHPAPVSPGHSTAVVSLPGSQQHLSANMFVALHSYSAHGPDELDLQKGEGVRVLGKCQDGWLRGVSLVTGRVGIFPNNYVIPIFRKTSSFPDSRSPGLYTTWTLSTSSVSSQGSISEGDPRQSRPFKSVFVPTAIVNPVRSTAGPGTLGQGSLRKGRSSMRKNGSLQRPLQSGIPTLVVGSLRRSPTMVLRPQQFQFYQPQGIPSSPSAVVVEMGSKPALTGEPALTCISRGSEAWIHSAASSLIMEDKEIPIKSEPLPKPPASAPPSILVKPENSRNGIEKQVKTVRFQNYSPPPTKHYTSHPTSGKPEQPATLKASQPEAASLGPEMTVLFAHRSGCHSGQQTDLRRKSALGKATTLVSTASGTQTVFPSK
B3: 2'-5'-oligoadenylate synthase 1 (Homo sapiens), P00973 (parent)
chain: MMDLRNTPAKSLDKFIEDYLLPDTCFRMQINHAIDIICGFLKERCFRGSSYPVCVSKVVKGGSSGKGTTLRGRSDADLVVFLSPLTTFQDQLNRRGEFIQEIRRQLEACQRERAFSVKFEVQAPRWGNPRALSFVLSSLQLGEGVEFDVLPAFDALGQLTGGYKPNPQIYVKLIEECTDLQKEGEFSTCFTELQRDFLKQRPTKLKSLIRLVKHWYQNCKKKLGKLPPQYALELLTVYAWERGSMKTHFNTAQGFRTVLELVINYQQLCIYWTKYYDFKNPIIEKYLRRQLTKPRPVILDPADPTGNLGGGDPKGWRQLAQEAEAWLNYPCFKNWDGSPVSSWILLAESNSADDETDDPRRYQKYGYIGTHEYPHFSHRPSTLQAASTPQAEEDWTCTIL
partner: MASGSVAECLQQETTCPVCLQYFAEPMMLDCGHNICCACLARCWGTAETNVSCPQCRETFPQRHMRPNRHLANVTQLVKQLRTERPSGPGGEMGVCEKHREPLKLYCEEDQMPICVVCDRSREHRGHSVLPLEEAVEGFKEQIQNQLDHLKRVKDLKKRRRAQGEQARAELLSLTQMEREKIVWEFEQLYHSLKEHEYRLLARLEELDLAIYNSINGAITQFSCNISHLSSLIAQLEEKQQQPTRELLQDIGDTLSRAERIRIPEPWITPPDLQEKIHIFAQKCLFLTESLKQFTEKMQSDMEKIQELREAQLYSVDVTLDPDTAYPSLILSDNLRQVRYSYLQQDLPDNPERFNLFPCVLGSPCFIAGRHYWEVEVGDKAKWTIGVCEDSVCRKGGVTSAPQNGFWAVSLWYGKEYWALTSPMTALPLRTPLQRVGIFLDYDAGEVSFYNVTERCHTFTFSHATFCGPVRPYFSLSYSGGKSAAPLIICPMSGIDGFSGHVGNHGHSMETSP

Variants of: B1
Conditions: with hxa1_human HOXA1, P49639
hxa1_human HOXA1, P49639, sequence (P49639 whole entry): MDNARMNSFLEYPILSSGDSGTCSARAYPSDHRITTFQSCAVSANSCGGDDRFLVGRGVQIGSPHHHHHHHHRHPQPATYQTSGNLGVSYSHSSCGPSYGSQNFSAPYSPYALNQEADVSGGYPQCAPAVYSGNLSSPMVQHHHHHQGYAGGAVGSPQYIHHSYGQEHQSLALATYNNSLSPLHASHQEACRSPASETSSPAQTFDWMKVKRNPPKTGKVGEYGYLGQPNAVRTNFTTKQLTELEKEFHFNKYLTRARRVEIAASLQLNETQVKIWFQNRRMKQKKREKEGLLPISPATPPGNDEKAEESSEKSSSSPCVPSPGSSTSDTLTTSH

effect of a mutation on the interaction | Variant
with no effect | MWTLVSWVALTAGLVAGTRCPDGQFCPVACCLDPGGASYSCCRPLLDKWPTTLSRHLGGPCQVDAHCSAGHSCIFTVSGTSSCCPFPEAVACGDGHHCCPRGFHCSADGRSCFQRSGNNSVGAIQCPDSQFECPDFSTCCVMVDGSWGCCPMPQASCCEDRVHCCPHGAFCDLVHTRCITPTGTHPLAKKLPAQRTNRAVALSSSVMCPDARSRCPDGSTCCELPSGKYGCCPMPNATCCSDHLHCCPQDTVCDLIQSKCLSKENATTDLLTKLPAHTVGDVKCDMEVSCPDGYTCCRLQSGAWGCCPFTQAVCCEDHIHCCPAGFTCDTQKGTCEQGPHQVPWMEKAPAHLSLPDPQALKRDVPCDNVSSCPSSDTCCQLTSGEWGCCPIPEAVCCSDHQHCCPQGYTCVAEGQCQRGSEIVAGLEKMPARRASLSHPRDIGCDQHTSCPVGQTCCPSLGGSWACCQLPHAVCCEDRQHCCPAGYTCNVKARSCEKEVVSAQPATFLARSPHVAVKDVECGEGHFCHDNQTCCRDNRQGWACCPYRQGVCCADRRHCCPAGFRCAARGTKCLRREAPRWDAPLRDPALRQLL [G515A]

Variants of: B1
Conditions: with glrx3_human GLRX3, O76003
glrx3_human GLRX3, O76003, sequence (O76003 whole entry): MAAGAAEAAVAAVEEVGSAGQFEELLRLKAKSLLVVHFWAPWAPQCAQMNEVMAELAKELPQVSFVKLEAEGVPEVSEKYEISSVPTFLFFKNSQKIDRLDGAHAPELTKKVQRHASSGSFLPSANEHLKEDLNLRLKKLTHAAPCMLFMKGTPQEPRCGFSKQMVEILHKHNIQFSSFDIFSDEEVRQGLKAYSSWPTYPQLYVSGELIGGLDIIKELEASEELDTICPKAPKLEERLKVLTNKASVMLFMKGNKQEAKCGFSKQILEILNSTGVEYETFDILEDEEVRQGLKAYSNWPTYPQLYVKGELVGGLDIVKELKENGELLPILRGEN

effect of a mutation on the interaction | Variant
with no effect | MWTLVSWVALTAGLVAGTRCPDGQFCPVACCLDPGGASYSCCRPLLDKWPTTLSRHLGGPCQVDAHCSAGHSCIFTVSGTSSCCPFPEAVACGDGHHCCPRGFHCSADGRSCFQRSGNNSVGAIQCPDSQFECPDFSTCCVMVDGSWGCCPMPQASCCEDRVHCCPHGAFCDLVHTRCITPTGTHPLAKKLPAQRTNRAVALSSSVMCPDARSRCPDGSTCCELPSGKYGCCPMPNATCCSDHLHCCPQDTVCDLIQSKCLSKENATTDLLTKLPAHTVGDVKCDMEVSCPDGYTCCRLQSGAWGCCPFTQAVCCEDHIHCCPAGFTCDTQKGTCEQGPHQVPWMEKAPAHLSLPDPQALKRDVPCDNVSSCPSSDTCCQLTSGEWGCCPIPEAVCCSDHQHCCPQGYTCVAEGQCQRGSEIVAGLEKMPARRASLSHPRDIGCDQHTSCPVGQTCCPSLGGSWACCQLPHAVCCEDRQHCCPAGYTCNVKARSCEKEVVSAQPATFLARSPHVAVKDVECGEGHFCHDNQTCCRDNRQGWACCPYRQGVCCADRRHCCPAGFRCAARGTKCLRREAPRWDAPLRDPALRQLL [G515A]

Variants of: B1
Conditions: with sgta_human SGTA

effect of a mutation on the interaction | Variant
with no effect | MWTLVSWVALTAGLVAGTWCPDGQFCPVACCLDPGGASYSCCRPLLDKWPTTLSRHLGGPCQVDAHCSAGHSCIFTVSGTSSCCPFPEAVACGDGHHCCPRGFHCSADGRSCFQRSGNNSVGAIQCPDSQFECPDFSTCCVMVDGSWGCCPMPQASCCEDRVHCCPHGAFCDLVHTRCITPTGTHPLAKKLPAQRTNRAVALSSSVMCPDARSRCPDGSTCCELPSGKYGCCPMPNATCCSDHLHCCPQDTVCDLIQSKCLSKENATTDLLTKLPAHTVGDVKCDMEVSCPDGYTCCRLQSGAWGCCPFTQAVCCEDHIHCCPAGFTCDTQKGTCEQGPHQVPWMEKAPAHLSLPDPQALKRDVPCDNVSSCPSSDTCCQLTSGEWGCCPIPEAVCCSDHQHCCPQGYTCVAEGQCQRGSEIVAGLEKMPARRASLSHPRDIGCDQHTSCPVGQTCCPSLGGSWACCQLPHAVCCEDRQHCCPAGYTCNVKARSCEKEVVSAQPATFLARSPHVGVKDVECGEGHFCHDNQTCCRDNRQGWACCPYRQGVCCADRRHCCPAGFRCAARGTKCLRREAPRWDAPLRDPALRQLL [R19W]

Variants of: B1
Conditions: with otx1_human OTX1, P32242
otx1_human OTX1, P32242, sequence (P32242 whole entry): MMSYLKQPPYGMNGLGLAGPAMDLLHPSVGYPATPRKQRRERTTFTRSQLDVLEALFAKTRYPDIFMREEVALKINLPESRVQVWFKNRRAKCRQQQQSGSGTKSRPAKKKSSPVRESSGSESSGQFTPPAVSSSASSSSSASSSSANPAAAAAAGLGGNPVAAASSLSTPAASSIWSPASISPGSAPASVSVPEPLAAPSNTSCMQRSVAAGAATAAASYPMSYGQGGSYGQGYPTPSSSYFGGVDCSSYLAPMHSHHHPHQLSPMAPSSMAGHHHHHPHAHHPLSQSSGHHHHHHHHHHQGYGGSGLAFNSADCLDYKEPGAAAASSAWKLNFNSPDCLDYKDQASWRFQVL

effect of a mutation on the interaction | Variant
with no effect | MWTLVSWVALTAGLVAGTWCPDGQFCPVACCLDPGGASYSCCRPLLDKWPTTLSRHLGGPCQVDAHCSAGHSCIFTVSGTSSCCPFPEAVACGDGHHCCPRGFHCSADGRSCFQRSGNNSVGAIQCPDSQFECPDFSTCCVMVDGSWGCCPMPQASCCEDRVHCCPHGAFCDLVHTRCITPTGTHPLAKKLPAQRTNRAVALSSSVMCPDARSRCPDGSTCCELPSGKYGCCPMPNATCCSDHLHCCPQDTVCDLIQSKCLSKENATTDLLTKLPAHTVGDVKCDMEVSCPDGYTCCRLQSGAWGCCPFTQAVCCEDHIHCCPAGFTCDTQKGTCEQGPHQVPWMEKAPAHLSLPDPQALKRDVPCDNVSSCPSSDTCCQLTSGEWGCCPIPEAVCCSDHQHCCPQGYTCVAEGQCQRGSEIVAGLEKMPARRASLSHPRDIGCDQHTSCPVGQTCCPSLGGSWACCQLPHAVCCEDRQHCCPAGYTCNVKARSCEKEVVSAQPATFLARSPHVGVKDVECGEGHFCHDNQTCCRDNRQGWACCPYRQGVCCADRRHCCPAGFRCAARGTKCLRREAPRWDAPLRDPALRQLL [R19W]

Variants of: B2
Conditions: with rbpms_human RBPMS

effect of a mutation on the interaction | Variant
with no effect | V687I

Variants of: B2
Conditions: with amol2_human AMOTL2, Q9Y2J4
amol2_human AMOTL2, Q9Y2J4, sequence (Q9Y2J4 whole entry): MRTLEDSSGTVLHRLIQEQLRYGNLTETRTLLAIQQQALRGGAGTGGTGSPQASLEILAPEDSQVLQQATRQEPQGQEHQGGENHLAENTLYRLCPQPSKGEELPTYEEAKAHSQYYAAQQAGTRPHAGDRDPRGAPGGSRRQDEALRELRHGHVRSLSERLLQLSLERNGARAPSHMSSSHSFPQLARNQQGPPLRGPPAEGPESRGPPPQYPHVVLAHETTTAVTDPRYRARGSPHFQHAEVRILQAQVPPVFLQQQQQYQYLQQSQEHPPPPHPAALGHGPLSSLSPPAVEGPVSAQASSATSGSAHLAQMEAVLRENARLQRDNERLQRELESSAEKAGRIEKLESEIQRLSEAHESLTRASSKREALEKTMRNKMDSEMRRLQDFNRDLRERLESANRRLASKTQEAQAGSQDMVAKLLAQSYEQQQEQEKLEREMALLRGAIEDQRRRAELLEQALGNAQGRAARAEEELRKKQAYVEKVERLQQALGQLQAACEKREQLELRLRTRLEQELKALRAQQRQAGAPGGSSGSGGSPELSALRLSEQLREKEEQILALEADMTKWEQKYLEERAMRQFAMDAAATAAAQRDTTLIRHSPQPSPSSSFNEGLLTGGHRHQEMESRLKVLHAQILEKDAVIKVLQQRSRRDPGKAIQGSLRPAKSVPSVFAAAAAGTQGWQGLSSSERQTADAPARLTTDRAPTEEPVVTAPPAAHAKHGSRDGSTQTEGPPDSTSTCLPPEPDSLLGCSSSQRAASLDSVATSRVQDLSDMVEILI

effect of a mutation on the interaction | Variant
with no effect | V687I

Variants of: B2
Conditions: with mtus2_human MTUS2, Q5JR59
mtus2_human MTUS2, Q5JR59, sequence (Q5JR59 whole entry): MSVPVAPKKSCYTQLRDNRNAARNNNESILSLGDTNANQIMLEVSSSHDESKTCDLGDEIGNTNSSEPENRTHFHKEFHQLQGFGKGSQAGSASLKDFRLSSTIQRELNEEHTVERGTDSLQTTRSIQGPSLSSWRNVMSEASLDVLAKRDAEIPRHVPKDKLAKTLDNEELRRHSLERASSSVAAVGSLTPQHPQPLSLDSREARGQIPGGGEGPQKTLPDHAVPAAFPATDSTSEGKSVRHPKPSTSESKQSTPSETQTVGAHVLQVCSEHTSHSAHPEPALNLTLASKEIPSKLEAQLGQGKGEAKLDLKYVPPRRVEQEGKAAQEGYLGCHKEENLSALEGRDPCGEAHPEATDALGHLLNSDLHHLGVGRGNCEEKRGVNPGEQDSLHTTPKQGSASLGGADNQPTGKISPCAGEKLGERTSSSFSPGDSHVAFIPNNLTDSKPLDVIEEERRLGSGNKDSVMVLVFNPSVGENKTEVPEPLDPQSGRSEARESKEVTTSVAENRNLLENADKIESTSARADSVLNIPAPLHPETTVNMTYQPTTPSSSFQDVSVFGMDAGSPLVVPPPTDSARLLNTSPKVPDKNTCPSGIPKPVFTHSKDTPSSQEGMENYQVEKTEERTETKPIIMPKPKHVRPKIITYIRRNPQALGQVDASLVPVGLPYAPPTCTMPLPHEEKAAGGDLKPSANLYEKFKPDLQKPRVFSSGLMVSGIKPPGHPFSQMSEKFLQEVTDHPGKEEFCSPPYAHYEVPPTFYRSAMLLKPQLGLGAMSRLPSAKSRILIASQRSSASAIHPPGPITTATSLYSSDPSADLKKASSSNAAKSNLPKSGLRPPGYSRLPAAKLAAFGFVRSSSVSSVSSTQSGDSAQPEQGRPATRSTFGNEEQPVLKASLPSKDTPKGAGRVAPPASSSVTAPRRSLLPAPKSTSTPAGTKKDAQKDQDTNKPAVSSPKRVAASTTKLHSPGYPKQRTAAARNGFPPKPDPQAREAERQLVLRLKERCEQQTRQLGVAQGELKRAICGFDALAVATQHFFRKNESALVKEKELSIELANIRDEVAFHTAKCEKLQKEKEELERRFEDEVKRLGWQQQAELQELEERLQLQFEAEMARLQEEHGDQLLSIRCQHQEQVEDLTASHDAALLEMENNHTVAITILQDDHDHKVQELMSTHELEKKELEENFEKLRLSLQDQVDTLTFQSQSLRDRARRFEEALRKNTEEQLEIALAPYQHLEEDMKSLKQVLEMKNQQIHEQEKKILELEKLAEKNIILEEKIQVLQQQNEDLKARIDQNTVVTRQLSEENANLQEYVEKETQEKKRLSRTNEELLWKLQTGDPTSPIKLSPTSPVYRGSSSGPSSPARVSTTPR

effect of a mutation on the interaction | Variant
with no effect | V687I

Variants of: B3
Conditions: with tri27_human TRIM27, P14373

effect of a mutation on the interaction | Variant
disrupting interaction strength | MMDLRNTPAKSLDKFIEDYLLPDTCFRMQINHAIDIICGFLKERCFRGSSYPVCVSKVVKGGSSGKGTTLRGRSDADLVVFLSPLTTFQDQLNRRGEFIQEIRRQLEACQRERAFSVKFEVQAPRWGNPRALSFVLSSLQLGEGVEFDVLPAFDALGQLTGGYKPNPQIYVKLIEECTDLQKEGEFSTCFTELQRDFLKQRPTKLKSLIRLVKHWYQNCKKKLGKLPPQYALELLTVYAWERGSMKTHFNTAQGFRTVLELVINYQQLCIYWTKYYDFKNPIIEKYLRRQLTKPRPVILDPADPTGNLGGGDPKGWRQLAQEAEAWPNYPCFKNWDGSPVSSWILLAESNSADDETDDPRRYQKYGYIGTHEYPHFSHRPSTLQAASTPQAEEDWTCTIL [L327P]
